In publication PMC10132805 one finds Kd data, which are given here for 6 molecules.

In assay [1] the target is V domain of programmed cell death 6-interacting protein (ALIX V) (human) (UniProt Q8WUM4).
In assay [2] the target is E3 ubiquitin-protein ligase NEDD4 WW2 domain (human).
Assay [3] has as its target E3 ubiquitin-protein ligase NEDD4 WW4 domain (human).
For assay [4], the target named is N-terminal domain of clathrin (CLTC NTD) (human) (UniProt Q00610).
N-terminal domain of clathrin (CLTC NTD) (human), sequence (Q00610 whole entry, the tested form may be a part): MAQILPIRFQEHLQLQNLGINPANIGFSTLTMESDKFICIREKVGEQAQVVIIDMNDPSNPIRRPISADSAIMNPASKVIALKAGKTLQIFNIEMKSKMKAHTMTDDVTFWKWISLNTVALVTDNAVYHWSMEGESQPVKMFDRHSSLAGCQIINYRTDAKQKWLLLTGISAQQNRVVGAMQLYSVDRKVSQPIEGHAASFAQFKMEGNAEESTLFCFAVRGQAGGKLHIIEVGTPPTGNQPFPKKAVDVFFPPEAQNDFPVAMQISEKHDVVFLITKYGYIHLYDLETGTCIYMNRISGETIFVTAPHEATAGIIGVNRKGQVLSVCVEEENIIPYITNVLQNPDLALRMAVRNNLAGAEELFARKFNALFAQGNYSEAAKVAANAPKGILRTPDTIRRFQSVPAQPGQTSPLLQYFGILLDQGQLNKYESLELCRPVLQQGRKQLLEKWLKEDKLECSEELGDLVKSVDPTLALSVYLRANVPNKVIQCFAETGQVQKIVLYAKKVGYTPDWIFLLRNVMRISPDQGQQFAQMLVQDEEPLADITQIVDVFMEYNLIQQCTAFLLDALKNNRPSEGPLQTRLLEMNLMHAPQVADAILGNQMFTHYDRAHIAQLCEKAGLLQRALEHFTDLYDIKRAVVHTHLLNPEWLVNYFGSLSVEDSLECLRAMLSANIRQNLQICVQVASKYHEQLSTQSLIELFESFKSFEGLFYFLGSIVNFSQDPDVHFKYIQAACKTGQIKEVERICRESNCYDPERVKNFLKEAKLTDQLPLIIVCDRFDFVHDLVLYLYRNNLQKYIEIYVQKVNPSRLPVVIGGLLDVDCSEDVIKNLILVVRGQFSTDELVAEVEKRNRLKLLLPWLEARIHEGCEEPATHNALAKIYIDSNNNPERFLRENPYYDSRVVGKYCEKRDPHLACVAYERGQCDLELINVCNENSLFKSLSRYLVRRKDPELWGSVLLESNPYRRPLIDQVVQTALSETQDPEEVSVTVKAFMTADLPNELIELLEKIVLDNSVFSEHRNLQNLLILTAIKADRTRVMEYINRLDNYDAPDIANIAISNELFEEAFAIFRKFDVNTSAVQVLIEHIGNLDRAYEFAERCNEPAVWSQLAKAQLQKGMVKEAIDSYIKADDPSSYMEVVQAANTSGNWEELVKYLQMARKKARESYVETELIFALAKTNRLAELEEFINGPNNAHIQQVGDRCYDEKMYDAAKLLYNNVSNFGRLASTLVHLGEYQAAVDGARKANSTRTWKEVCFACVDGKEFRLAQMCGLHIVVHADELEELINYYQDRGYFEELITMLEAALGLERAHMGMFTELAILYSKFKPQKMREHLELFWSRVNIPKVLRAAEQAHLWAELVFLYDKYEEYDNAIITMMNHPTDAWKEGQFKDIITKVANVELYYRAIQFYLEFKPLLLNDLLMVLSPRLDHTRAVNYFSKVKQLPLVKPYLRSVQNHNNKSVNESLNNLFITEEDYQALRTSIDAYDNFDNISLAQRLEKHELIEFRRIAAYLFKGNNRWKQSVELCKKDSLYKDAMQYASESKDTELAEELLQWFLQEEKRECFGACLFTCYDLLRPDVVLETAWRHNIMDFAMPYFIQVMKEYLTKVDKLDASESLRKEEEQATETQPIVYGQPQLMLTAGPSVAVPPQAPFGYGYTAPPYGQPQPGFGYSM

V domain of programmed cell death 6-interacting protein (ALIX V) (human), sequence (Q8WUM4 whole entry, the tested form may be a part): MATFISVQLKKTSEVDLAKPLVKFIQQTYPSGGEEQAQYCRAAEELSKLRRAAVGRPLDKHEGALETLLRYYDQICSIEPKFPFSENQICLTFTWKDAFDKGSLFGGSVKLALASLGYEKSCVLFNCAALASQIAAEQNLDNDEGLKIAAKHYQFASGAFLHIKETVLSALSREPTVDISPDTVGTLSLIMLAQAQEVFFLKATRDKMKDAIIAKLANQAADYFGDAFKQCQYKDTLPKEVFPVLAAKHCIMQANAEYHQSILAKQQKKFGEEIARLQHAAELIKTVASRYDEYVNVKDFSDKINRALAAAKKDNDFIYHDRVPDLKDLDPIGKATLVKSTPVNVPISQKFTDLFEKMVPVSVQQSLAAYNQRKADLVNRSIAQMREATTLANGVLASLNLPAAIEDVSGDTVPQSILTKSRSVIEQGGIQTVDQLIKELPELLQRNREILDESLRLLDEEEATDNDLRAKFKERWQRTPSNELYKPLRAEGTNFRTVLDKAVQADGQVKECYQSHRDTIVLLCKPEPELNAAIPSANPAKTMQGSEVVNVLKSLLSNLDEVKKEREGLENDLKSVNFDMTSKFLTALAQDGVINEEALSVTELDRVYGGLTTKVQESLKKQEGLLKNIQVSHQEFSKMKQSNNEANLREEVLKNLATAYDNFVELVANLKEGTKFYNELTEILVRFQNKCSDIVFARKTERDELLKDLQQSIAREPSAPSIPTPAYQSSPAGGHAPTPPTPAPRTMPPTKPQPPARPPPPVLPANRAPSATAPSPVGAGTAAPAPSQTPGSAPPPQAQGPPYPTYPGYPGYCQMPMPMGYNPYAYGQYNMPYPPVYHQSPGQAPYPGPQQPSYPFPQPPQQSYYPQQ
E3 ubiquitin-protein ligase NEDD4 WW2 domain (human), sequence (P46934 whole entry, the tested form may be a part): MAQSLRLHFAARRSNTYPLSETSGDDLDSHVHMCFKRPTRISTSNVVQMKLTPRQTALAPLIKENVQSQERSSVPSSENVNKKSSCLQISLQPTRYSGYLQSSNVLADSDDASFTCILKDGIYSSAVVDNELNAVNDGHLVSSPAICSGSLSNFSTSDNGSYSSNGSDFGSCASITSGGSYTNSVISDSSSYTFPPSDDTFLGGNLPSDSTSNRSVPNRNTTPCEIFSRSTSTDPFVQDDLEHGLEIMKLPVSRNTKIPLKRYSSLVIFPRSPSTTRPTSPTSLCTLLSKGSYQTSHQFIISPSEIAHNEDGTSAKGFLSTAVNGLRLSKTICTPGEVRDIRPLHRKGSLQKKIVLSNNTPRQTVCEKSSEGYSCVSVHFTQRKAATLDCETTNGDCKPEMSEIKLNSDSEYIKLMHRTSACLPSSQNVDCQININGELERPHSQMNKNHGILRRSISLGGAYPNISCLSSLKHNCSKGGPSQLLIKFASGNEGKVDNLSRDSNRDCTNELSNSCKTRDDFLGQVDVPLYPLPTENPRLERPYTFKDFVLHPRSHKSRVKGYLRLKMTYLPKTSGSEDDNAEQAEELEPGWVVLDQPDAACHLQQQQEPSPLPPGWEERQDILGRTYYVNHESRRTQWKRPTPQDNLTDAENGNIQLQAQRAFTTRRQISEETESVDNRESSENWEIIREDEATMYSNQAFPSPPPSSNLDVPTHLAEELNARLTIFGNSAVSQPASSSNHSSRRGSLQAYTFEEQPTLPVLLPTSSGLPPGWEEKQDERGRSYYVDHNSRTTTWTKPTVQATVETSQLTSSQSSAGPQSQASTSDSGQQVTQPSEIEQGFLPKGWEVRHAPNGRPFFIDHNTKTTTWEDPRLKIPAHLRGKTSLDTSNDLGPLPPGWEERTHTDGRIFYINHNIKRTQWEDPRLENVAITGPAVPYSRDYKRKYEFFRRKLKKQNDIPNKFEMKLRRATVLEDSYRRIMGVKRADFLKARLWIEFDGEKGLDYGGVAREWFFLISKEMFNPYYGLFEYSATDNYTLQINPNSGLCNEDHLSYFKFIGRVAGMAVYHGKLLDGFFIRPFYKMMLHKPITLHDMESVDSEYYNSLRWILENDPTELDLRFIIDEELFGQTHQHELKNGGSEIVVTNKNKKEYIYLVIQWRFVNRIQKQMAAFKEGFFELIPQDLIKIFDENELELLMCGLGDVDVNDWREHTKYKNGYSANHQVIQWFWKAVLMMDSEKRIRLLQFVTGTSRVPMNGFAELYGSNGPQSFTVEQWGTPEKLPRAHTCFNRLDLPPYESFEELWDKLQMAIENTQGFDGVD
E3 ubiquitin-protein ligase NEDD4 WW4 domain (human), sequence (P46934 whole entry, the tested form may be a part): as above

With MSSLYPSLEDLKVDQA [SDCBP2 1-16 (Human)], the Kd in assay [1] was 0.29 µM.

As to PPPVLYPNLAELENYM [SDCBP2 39-54 (Human)], in assay [1], the Kd is 2.1 µM.

Regarding EPDQEPPPPYQEQVPVPVYHPTPSQ [RNF11 31-65 (Human)], the Kd in assay [2] worked out at 15 µM; in assay [3] it was 35 µM.

Consider VPVDTNLIEFDTNYAT [ARRB2 367-382 (Human)], for which the Kd in assay [4] stood at 40 µM.

Take GDLLGDLLNLDLGPPVY [AP1B1 626-641 (Human)]: the Kd in assay [4] was found to be 300 µM.

EPDQEPPPPYQEQVPV [RNF11 31-56 (Human)]: the Kd came to 13 µM in assay [2] and 44 µM in assay [3].
